The values that follow come from IntAct's records for PubMed 29039417.

To fix the notation:
B1: BBSome complex member BBS4 (Homo sapiens), Q96RK4 (parent)
chain: MAEERVATRTQFPVSTESQKPRQKKAPEFPILEKQNWLIHLHYIRKDYEACKAVIKEQLQETQGLCEYAIYVQALIFRLEGNIQESLELFQTCAVLSPQSADNLKQVARSLFLLGKHKAAIEVYNEAAKLNQKDWEISHNLGVCYIYLKQFNKAQDQLHNALNLNRHDLTYIMLGKIHLLEGDLDKAIEVYKKAVEFSPENTELLTTLGLLYLQLGIYQKAFEHLGNALTYDPTNYKAILAAGSMMQTHGDFDVALTKYRVVACAVPESPPLWNNIGMCFFGKKKYVAAISCLKRANYLAPFDWKILYNLGLVHLTMQQYASAFHFLSAAINFQPKMGELYMLLAVALTNLEDIENAKRAYAEAVHLDKCNPLVNLNYAVLLYNQGEKKNALAQYQEMEKKVSLLKDNSSLEFDSEMVEMAQKLGAALQVGEALVWTKPVKDPKSKHQTTSTSKPASFQQPLGSNQALGQAMSSAAAYRTLPSGAGGTSQFTKPPSLPLEPEPAVESSPTETSEQIREK
partner: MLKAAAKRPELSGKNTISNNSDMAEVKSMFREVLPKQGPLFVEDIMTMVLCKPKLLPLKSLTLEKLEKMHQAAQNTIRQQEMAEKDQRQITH

Variants of B1 are the subject of this test. The note with it: with bbip1_human BBIP1, A8MTZ0.
Regarding L315S, the “effect of a mutation on the interaction” value is given as “disrupting interaction strength”. Regarding W304A, the “effect of a mutation on the interaction” value was “with no effect”. For W304R the value was “disrupting interaction strength”; for W304E, “with no effect”. For W304K the value was “with no effect”; for L340E, “with no effect”; for L340F, “disrupting interaction strength”. The same measure for L340A: “with no effect”.

In the case of K305E, the “effect of a mutation on the interaction” value is “with no effect”. For K305A the value was “with no effect”; for Q318A, “with no effect”. For Q318K the value was “with no effect”; for Q318E, “with no effect”.

In the case of S328E, the “effect of a mutation on the interaction” value is reported as “with no effect”. For S328A the value was “with no effect”. The same measure for S328K: “with no effect”; for S322A: “with no effect”; for S322K: “with no effect”. For S322E the value was “with no effect”.

Consider L327A, for which the “effect of a mutation on the interaction” value is on record as “with no effect”. The same measure for L327H: “disrupting interaction strength”. The same measure for L327T: “disrupting interaction strength”; for L327E: “with no effect”; for L327K: “with no effect”. With L327R, the “effect of a mutation on the interaction” value was “disrupting interaction strength”.

For I306A, the “effect of a mutation on the interaction” value is recorded as “with no effect”. For I306E the value was “with no effect”; for I306K, “with no effect”.

For I306T, the “effect of a mutation on the interaction” value was “disrupting interaction strength”. The same measure for I306P: “disrupting interaction strength”; for A296E: “with no effect”; for A296V: “disrupting interaction strength”.

With A296K, the “effect of a mutation on the interaction” value is “with no effect”. For the variant C292R, the “effect of a mutation on the interaction” value is given as “disrupting interaction strength”. Consider Y298E, for which the “effect of a mutation on the interaction” value was “with no effect”.

As for Y298K, the “effect of a mutation on the interaction” value was “with no effect”. The same measure for Y298A: “with no effect”; for Q319E: “with no effect”. The same measure for Q319K: “with no effect”; for Q319A: “with no effect”; for I331K: “with no effect”.

For I331E, the “effect of a mutation on the interaction” value is “with no effect”.

For the variant I331F, the “effect of a mutation on the interaction” value was “disrupting interaction strength”.

With I331A, the “effect of a mutation on the interaction” value is on record as “with no effect”. For L299K the value was “with no effect”; for L299E, “with no effect”; for L299A, “with no effect”. The same measure for R295A: “with no effect”; for R295K: “with no effect”; for R295E: “with no effect”. As to F333A, the “effect of a mutation on the interaction” value is “with no effect”.

In the case of F333K, the “effect of a mutation on the interaction” value is “with no effect”.

As to F333E, the “effect of a mutation on the interaction” value is “with no effect”. For A329E the value was “with no effect”; for A329K, “with no effect”; for T316E, “with no effect”. For T316A the value was “with no effect”; for T316K, “with no effect”. Regarding V313K, the “effect of a mutation on the interaction” value was “with no effect”. The same measure for V313A: “with no effect”; for V313E: “with no effect”. For H314E the value was “with no effect”; for H314P, “disrupting interaction strength”; for H314K, “with no effect”. For H314A the value was “with no effect”; for L307A, “with no effect”; for L307P, “disrupting interaction strength”. Turning to L307E, the “effect of a mutation on the interaction” value is recorded as “with no effect”. The same measure for L307K: “with no effect”; for N297E: “with no effect”; for N297A: “with no effect”. Turning to N297K, the “effect of a mutation on the interaction” value is “with no effect”. For M337K the value was “with no effect”. For M337A the value was “with no effect”. For M337E the value was “with no effect”; for M317E, “with no effect”; for M317A, “with no effect”. Regarding M317K, the “effect of a mutation on the interaction” value is “with no effect”. The same measure for L310S: “disrupting interaction strength”.

With L310A, the “effect of a mutation on the interaction” value was “with no effect”. For L310W the value was “disrupting interaction strength”; for L310E, “with no effect”. For L310K the value was “with no effect”. The same measure for A300E: “with no effect”; for A300K: “with no effect”.
